We go through one molecule from publication doi:10.1101/2025.10.16.681972 (bioRxiv, 2025).

The assay concerns the target recombinant soluble form (ectodomain) of human MERTK (Homo sapiens, UniProt Q12866). The experiment in a line: SPR. For orientation: In SPR one partner is held on a chip, and binding of the other changes the refractive index at the surface.

Chain of recombinant soluble form (ectodomain) of human MERTK (Q12866 21-505): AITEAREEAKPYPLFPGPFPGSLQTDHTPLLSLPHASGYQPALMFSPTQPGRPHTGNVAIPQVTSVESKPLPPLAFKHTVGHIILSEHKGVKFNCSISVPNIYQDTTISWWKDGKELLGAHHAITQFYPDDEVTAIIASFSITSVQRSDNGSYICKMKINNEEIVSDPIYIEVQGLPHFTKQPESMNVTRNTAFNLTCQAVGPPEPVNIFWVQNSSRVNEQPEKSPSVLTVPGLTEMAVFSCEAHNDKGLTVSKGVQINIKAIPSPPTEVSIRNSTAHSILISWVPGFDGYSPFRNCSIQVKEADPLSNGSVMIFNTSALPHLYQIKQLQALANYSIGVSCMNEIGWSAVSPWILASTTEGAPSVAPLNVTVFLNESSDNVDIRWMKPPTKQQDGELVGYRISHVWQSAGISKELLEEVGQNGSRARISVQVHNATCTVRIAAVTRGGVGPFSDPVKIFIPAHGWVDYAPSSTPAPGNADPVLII

B1: recombinant mAb745 (anti-MERTK, variable regions of mAb745 on human IgG1 and kappa constant regions) (antibody, V domains shown)
VH: DVQIQESGPGLVKSSQSLSLTCTVTGYSITNDYAWNWIRQFPGNKLEWMGYISYNGNTFYNPSLKSRISITRDTSKNQFFLQLSSVTTEDTATYYCGRLLPVSYAMDYWGQGTSVTVSS
VL: DVVMTQTPLSLPVSLGDQASISCRSSQSLVHSNGNTYLHWYLQKPGQSPKLLIYKVSNRFSGVPDRFSGSGSGTDFTLKISRVEAEDLGVYFCYQSTHVPWTFGGGTKLEIK
Take B1: the binding result is listed as “binds”.
